Laboratory results as given in patent publication US20190330374A1 (IGM BIOSCIENCES, published 2019).
Blank lines part the entries; values can stand above or below the binder they belong to.

Legend:
[1] = target: OX40 in the PathHunter U2OS OX40 Signaling Assay (DiscoverX) cells; test: cell-based or functional assay
[2] = target: T1, OX40 on activated T cells (PBMCs activated with Human T cell Activator Dynabeads) (human, UniProt P43489 29-277); test: flow cytometry on activated PBMC T cells
T1 construct: Native OX40 on donor PBMC T cells; also called OX40 on CD8+ T cells (low levels); OX40 on CD4+ T cells (high levels)
T1 sequence: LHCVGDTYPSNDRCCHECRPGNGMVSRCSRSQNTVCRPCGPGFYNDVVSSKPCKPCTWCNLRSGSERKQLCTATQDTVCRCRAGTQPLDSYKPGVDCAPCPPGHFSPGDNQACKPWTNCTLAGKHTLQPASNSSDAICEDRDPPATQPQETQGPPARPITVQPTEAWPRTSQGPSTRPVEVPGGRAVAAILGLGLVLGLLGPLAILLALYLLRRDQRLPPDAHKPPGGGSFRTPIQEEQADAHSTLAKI

fold increase in NF-kB activation (RLU at the highest antibody concentration) compared to uncross-linked Anti-OX40 #1-IgG [1]: 23 fold
fold increase in signaling activation (RLU at the highest antibody concentration) compared to cross-linked Anti-OX40 #1-IgG [1]: 13 fold
B1: Anti-OX40 #1-IgM (antibody, V domains shown)
VH: QVQLQESGPGLVKPSQTLSLTCAVYGGSFSSGYWNWIRKHPGKGLEYIGYISYNGITYHNPSLKSRITINRDTSKNQYSLQLNSVTPEDTAVYYCARYKYDYDGGHAMDYWGQGTLVTVSS
VL: DIQMTQSPSSLSASVGDRVTITCRASQDISNYLNWYQQKPGKAPKLLIYYTSKLHSGVPSRFSGSGSGTDYTLTISSLQPEDFATYYCQQGSALPWTFGQGTKVEIK

binding result [2]: binds
B2: Anti-OX40 #1-IgG (antibody, V domains shown)
VH: B1 VH
VL: B1 VL
notes: VH and VL put into an IgG format by standard cloning; It was detected with anti-human kappa light chain, so the light chain is kappa; also called anti-OX40 IgG #1
